Values quoted from earlier work, collected in paper PMC4615603.

Molecular target: Nef (Human immunodeficiency virus 1) (UniProt P04324)

Hck SH3 (from UniProt P08631)
Kd: 120 nM
